# According to article PMC7055227, “Complete Profiling of Methyl-CpG-Binding Domains for Combinations of Cytosine Modifications at CpG Dinucleotides Reveals Differential Read-out in Normal and Rett-Associated States”:
# B1: p03 hmC/C duplex (dsDNA)
# DNA 1: AAAAAAAAAAACGAAAAAAAAAAA
# DNA 2: TTTTTTTTTTTCGTTTTTTTTTTT
# modifications: 5-hydroxymethylcytosine at C12 of strand 1; strand 2 unmodified (o3115/o2904)
# B2: p07 hmC/mC duplex (dsDNA)
# DNA 1: AAAAAAAAAAACGAAAAAAAAAAA
# DNA 2: TTTTTTTTTTTCGTTTTTTTTTTT
# modifications: 5-hydroxymethylcytosine at C12 of strand 1; 5-methylcytosine at C12 of strand 2 (o3115/o2909)
# B3: p08 fC/mC duplex (dsDNA)
# DNA 1: AAAAAAAAAAACGAAAAAAAAAAA
# DNA 2: TTTTTTTTTTTCGTTTTTTTTTTT
# modifications: 5-formylcytosine at C12 of strand 1; 5-methylcytosine at C12 of strand 2 (o3116/o2909)
# B4: p10 hmC/hmC duplex (dsDNA)
# DNA 1: AAAAAAAAAAACGAAAAAAAAAAA
# DNA 2: TTTTTTTTTTTCGTTTTTTTTTTT
# modifications: 5-hydroxymethylcytosine at C12 of strand 1 and C12 of strand 2 (o3115/o3112)
# B5: p11 fC/hmC duplex (dsDNA)
# DNA 1: AAAAAAAAAAACGAAAAAAAAAAA
# DNA 2: TTTTTTTTTTTCGTTTTTTTTTTT
# modifications: 5-formylcytosine at C12 of strand 1; 5-hydroxymethylcytosine at C12 of strand 2 (o3116/o3112)
# B6: p06 mC/mC duplex (dsDNA)
# DNA 1: AAAAAAAAAAACGAAAAAAAAAAA
# DNA 2: TTTTTTTTTTTCGTTTTTTTTTTT
# modifications: 5-methylcytosine at C12 of strand 1 and C12 of strand 2 (o2967/o2909)
# B7: probe p03 (dsDNA)
# DNA 1: AAAAAAAAAAACGAAAAAAAAAAA
# DNA 2: TTTTTTTTTTTCGTTTTTTTTTTT
# modifications: cytosine states of p03 not given in the material (perhaps C/C)
# B8: hmC/fC duplex (dsDNA)
# DNA 1: AAAAAAAAAAACGAAAAAAAAAAA
# DNA 2: TTTTTTTTTTTCGTTTTTTTTTTT
# modifications: 5-hydroxymethylcytosine at C12 of one strand, 5-formylcytosine at C12 of the other; strand assignment not certain
# B9: mC/hmC duplex (dsDNA)
# DNA 1: AAAAAAAAAAACGAAAAAAAAAAA
# DNA 2: TTTTTTTTTTTCGTTTTTTTTTTT
# modifications: 5-methylcytosine at C12 of one strand, 5-hydroxymethylcytosine at C12 of the other; strand assignment not certain
# B10: mC/fC duplex (dsDNA)
# DNA 1: AAAAAAAAAAACGAAAAAAAAAAA
# DNA 2: TTTTTTTTTTTCGTTTTTTTTTTT
# modifications: 5-methylcytosine at C12 of one strand, 5-formylcytosine at C12 of the other; strand assignment not certain
# Experiments:
# hMeCP2 MBD [1] = target: hMeCP2 MBD (Homo sapiens, UniProt P51608 90-181); test: EMSA; 20 mM HEPES, 30 mM KCl, 1 mM EDTA, 10 mM (NH4)2SO4, pH 7.3, 1 mM DTT, 0.2% Tween 20, 50 ng/uL poly(dA)-poly(dT) trap, 2 nM duplex, protein in dialysis buffer with BSA; 20 min room temperature; gel at 4 C; conditions: protein: recombinant, label: 5' 6-FAM on strand 1
# hMeCP2 MBD [2] = target: hMeCP2 MBD (Homo sapiens, UniProt P51608); test: EMSA; poly(dA)-poly(dT) 50 ng/uL; EMSA: 20 mM HEPES pH 7.3, 30 mM KCl, 1 mM EDTA, 10 mM (NH4)2SO4, 1 mM DTT, 0.2% Tween 20, 50 ng/uL poly(dA)-poly(dT), protein diluted in dialysis buffer with 0.1 mg/mL BSA; 2 nM duplex; 20 min at room temperature; gel at 4 C; conditions: protein: recombinant; tags: N-term SpA(Z)-Factor Xa-TEV, C-term 8xHis; label: 5' 6-FAM on strand 1; blunt
# hMBD4 MBD [3] = target: T1, hMBD4 MBD (Homo sapiens, UniProt O95243); test: EMSA; new preferred combination; EMSA: 20 mM HEPES pH 7.3, 30 mM KCl, 1 mM EDTA, 10 mM (NH4)2SO4, 1 mM DTT, 0.2% Tween 20, 50 ng/uL poly(dA)-poly(dT), protein diluted in dialysis buffer with 0.1 mg/mL BSA; 2 nM duplex; 20 min at room temperature; gel at 4 C; conditions: protein: recombinant; tags: N-term SpA(Z)-Factor Xa-TEV, C-term 8xHis; label: 5' 6-FAM on strand 1; blunt
# hMBD4 MBD [4] = target: T1, hMBD4 MBD; test: EMSA; lower than mC/fC; EMSA: 20 mM HEPES pH 7.3, 30 mM KCl, 1 mM EDTA, 10 mM (NH4)2SO4, 1 mM DTT, 0.2% Tween 20, 50 ng/uL poly(dA)-poly(dT), protein diluted in dialysis buffer with 0.1 mg/mL BSA; 2 nM duplex; 20 min at room temperature; gel at 4 C; conditions: protein: recombinant; tags: N-term SpA(Z)-Factor Xa-TEV, C-term 8xHis; label: 5' 6-FAM on strand 1; blunt
# hMBD4 MBD [5] = target: T1, hMBD4 MBD; test: EMSA; higher than mC/hmC; EMSA: 20 mM HEPES pH 7.3, 30 mM KCl, 1 mM EDTA, 10 mM (NH4)2SO4, 1 mM DTT, 0.2% Tween 20, 50 ng/uL poly(dA)-poly(dT), protein diluted in dialysis buffer with 0.1 mg/mL BSA; 2 nM duplex; 20 min at room temperature; gel at 4 C; conditions: protein: recombinant; tags: N-term SpA(Z)-Factor Xa-TEV, C-term 8xHis; label: 5' 6-FAM on strand 1; blunt
# hMeCP2 MBD (Homo sapiens, UniProt P51608 90-181), sequence (P51608 90-181): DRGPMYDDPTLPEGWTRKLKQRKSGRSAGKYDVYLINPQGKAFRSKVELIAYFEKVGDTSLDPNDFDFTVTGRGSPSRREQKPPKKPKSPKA
# T1 sequence (O95243 76-167): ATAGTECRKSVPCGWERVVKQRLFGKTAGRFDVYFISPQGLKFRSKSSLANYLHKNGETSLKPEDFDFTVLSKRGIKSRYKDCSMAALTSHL
# hMeCP2 MBD (Homo sapiens, UniProt P51608), sequence (P51608 90-181): as the sequence (P51608 90-181) above
Binder,Kd (hMeCP2 MBD [1]; blunt) [nM],also measured
B1,1080 ± 101,
B2,224 ± 24.6,
B3,197 ± 24,
B4,,Kd (hMeCP2 MBD [1]): 967 ± 89.6 nM
B5,541 ± 62.7,
B6,26.6 ± 3.85,
B7,,Kd (hMeCP2 MBD [2]): 1080 ± 101 nM
B8,,binding result (hMBD4 MBD [3]): binds
B9,,binding result (hMBD4 MBD [4]): binds
B10,,binding result (hMBD4 MBD [5]): binds
